Here are results for twelve molecules from patent US20210115124A1 (Genentech, published 2021).

Assay [1] deals with T1, human VEGF (hVEGF) (human, UniProt P15692 181-395).
T1 construct: also called VEGF-A
T1 sequence: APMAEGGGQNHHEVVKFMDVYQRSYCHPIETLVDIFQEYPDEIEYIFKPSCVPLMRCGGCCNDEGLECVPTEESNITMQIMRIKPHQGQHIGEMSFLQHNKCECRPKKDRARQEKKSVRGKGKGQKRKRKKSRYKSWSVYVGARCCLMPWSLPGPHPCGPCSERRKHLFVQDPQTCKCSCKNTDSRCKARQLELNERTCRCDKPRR
Description: SPR single-cycle.
Description: (§1) To determine the binding affinity of selected Fab variants, SPR measurement with a BIACORE® T200 instrument was used. Briefly, series S sensor chip CM5 was activated with 1-ethyl-3-(3-dimethylaminopropyl) carbodiimide (EDC) and N-hydroxysuccinimide (NHS) reagents according to the supplier's instructions, and human VEGF (hVEGF) was coupled to achieve 50-80 response units (RU), then following by blocking un-reacted groups with 1M ethanolamine.
(§2) Three-fold serial dilutions of Fab in HBS-P buffer (0.01 M HEPES pH 7.4, 0.15 M NaCl, 0.005% surfactant P20) from low (0.02 nM) to high (50 nM) were injected (flow rate: 30 μl/min). The binding responses on hVEGF were corrected by subtracting of RU from a blank flow cell. The sensorgram was recorded and subject to reference and buffer subtraction before evaluating by BIACORE® T200 Evaluation Software (version 2.0). Association rates (kₒₙ) and dissociation rates (koff) were calculated using a simple one-to-one Langmuir binding model. The equilibrium dissociation constant (Kd) was calculated as the ratio koff/kₒₙ.

For assay [2], the target named is T1, human VEGF (hVEGF). The assay is described as follows: SPR single-cycle. This is another data set of the same source.
Description: as §1, §2
Assay [3] addresses T1, human VEGF (hVEGF). Description: BIACORE SPR on immobilised hVEGF; label beside the mutation on the structure of the VEGF-bound G6 Fab (PDB 2FJG).
The target of assay [4] is T1, human VEGF (hVEGF). The description is as above. This is another data set of the same source.
For assay [5], the target named is T1, human VEGF (hVEGF). The assay is described as follows: SPR. On the technique in general: SPR reads the build-up and loss of mass on a sensor chip optically.
Description: as §1, §2
The target of assay [6] is T1, human VEGF (hVEGF). The assay is described as follows: SPR. The source holds these as a separate data set.

Like-named read-outs stand apart in the source and are kept apart here.

A word on the Kd: it is the concentration at which binding is half-saturated. A high value points to a looser complex. As a reminder, the koff is the first-order rate constant of dissociation. A low value points to slow dissociation. For orientation: kon means the rate constant with which the complex forms. A lower kon goes with slower complex formation.
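For Fold change (relative to G6.31) in this document: fab variants injected over hVEGF immobilized on a CM5 chip (Biacore T200), threefold dilution series from 0.02 to 50 nM, kinetics fitted with a 1:1 Langmuir model.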

B1: G6.31 HC-A40E (Fab, name in Kabat numbering, V domains shown)
VH: EVQLVESGGGLVQPGGSLRLSCAASGFTISDYWIHWVRQEPGKGLEWVAGITPAGGYTYYADSVKGRFTISADTSKNTAYLQMNSLRAEDTAVYYCARFVFFLPYAMDYWGQGTLVTVSS
VL: DIQMTQSPSSLSASVGDRVTITCRASQDVSTAVAWYQQKPGKAPKLLIYSASFLYSGVPSRFSGSGSGTDFTLTISSLQPEDFATYYCQQGYGNPFTFGQGTKVEIK
notes: Fab
B1: in the assay with human VEGF (hVEGF) [1], the “Fold difference (relative to G6.31)” value turned out to be 3.8 fold, the Kd turned out to be 0.41 nM, the koff came out at 0.000466 s⁻¹ and the kon is 1.13e+06 M⁻¹ s⁻¹. In the assay with human VEGF (hVEGF) [2], the “Fold change (relative to G6.31)” value is 0.6 fold, binding was characterised by a dissociation constant (Kd) of 2.63 nM, the koff came out at 0.000517 s⁻¹ and the kon worked out at 197000 M⁻¹ s⁻¹. In addition, in the assay with human VEGF (hVEGF) [3], the “fold change in binding affinity (Kd) compared to G6.31” value (“fold change in binding affinity (Kd)” for short) is 4 x.

B2: G6.31 HC-Q81S (Fab, name in Kabat numbering, V domains shown)
VH: EVQLVESGGGLVQPGGSLRLSCAASGFTISDYWIHWVRQAPGKGLEWVAGITPAGGYTYYADSVKGRFTISADTSKNTAYLSMNSLRAEDTAVYYCARFVFFLPYAMDYWGQGTLVTVSS
VL: DIQMTQSPSSLSASVGDRVTITCRASQDVSTAVAWYQQKPGKAPKLLIYSASFLYSGVPSRFSGSGSGTDFTLTISSLQPEDFATYYCQQGYGNPFTFGQGTKVEIK
notes: Fab
In the case of B2, in the assay with human VEGF (hVEGF) [1], the “Fold difference (relative to G6.31)” value was found to be 3.4 fold, binding was put at a Kd of 0.45 nM, the koff is 0.000487 s⁻¹ and the kon stood at 1.07e+06 M⁻¹ s⁻¹. For the same molecule, the “fold change in binding affinity (Kd)” value with human VEGF (hVEGF) [3] was determined as 3 x.

B3: G6.31 LC-D28R (Fab, V domains shown)
VH: EVQLVESGGGLVQPGGSLRLSCAASGFTISDYWIHWVRQAPGKGLEWVAGITPAGGYTYYADSVKGRFTISADTSKNTAYLQMNSLRAEDTAVYYCARFVFFLPYAMDYWGQGTLVTVSS
VL: DIQMTQSPSSLSASVGDRVTITCRASQRVSTAVAWYQQKPGKAPKLLIYSASFLYSGVPSRFSGSGSGTDFTLTISSLQPEDFATYYCQQGYGNPFTFGQGTKVEIK
notes: Fab
Turning to B3, in the assay with human VEGF (hVEGF) [1], the “Fold difference (relative to G6.31)” value was determined as 2.8 fold, the Kd came out at 0.56 nM, the koff was 0.000655 s⁻¹ and the kon amounted to 1.17e+06 M⁻¹ s⁻¹. Further, the “fold change in binding affinity (Kd)” value with human VEGF (hVEGF) [4] worked out at 3 x.

B4: G6.31 LC-Q89T (Fab, V domains shown)
VH: EVQLVESGGGLVQPGGSLRLSCAASGFTISDYWIHWVRQAPGKGLEWVAGITPAGGYTYYADSVKGRFTISADTSKNTAYLQMNSLRAEDTAVYYCARFVFFLPYAMDYWGQGTLVTVSS
VL: DIQMTQSPSSLSASVGDRVTITCRASQDVSTAVAWYQQKPGKAPKLLIYSASFLYSGVPSRFSGSGSGTDFTLTISSLQPEDFATYYCTQGYGNPFTFGQGTKVEIK
notes: Fab
B4: in the assay with human VEGF (hVEGF) [1], the “Fold difference (relative to G6.31)” value is 3.7 fold; the affinity, expressed as Kd, was 0.42 nM; the off-rate (koff) worked out at 0.000493 s⁻¹; the kon was 1.17e+06 M⁻¹ s⁻¹. In the assay with human VEGF (hVEGF) [4], the “fold change in binding affinity (Kd)” value came out at 4 x.

B5: G6.31 LC-Y36G (Fab, V domains shown)
VH: EVQLVESGGGLVQPGGSLRLSCAASGFTISDYWIHWVRQAPGKGLEWVAGITPAGGYTYYADSVKGRFTISADTSKNTAYLQMNSLRAEDTAVYYCARFVFFLPYAMDYWGQGTLVTVSS
VL: DIQMTQSPSSLSASVGDRVTITCRASQDVSTAVAWGQQKPGKAPKLLIYSASFLYSGVPSRFSGSGSGTDFTLTISSLQPEDFATYYCQQGYGNPFTFGQGTKVEIK
notes: Fab
In the case of B5, in the assay with human VEGF (hVEGF) [1], the “Fold difference (relative to G6.31)” value was found to be 0.6 fold, the Kd is 2.47 nM, the koff is 0.000558 s⁻¹ and the kon came to 225000 M⁻¹ s⁻¹. For the same molecule, in the assay with human VEGF (hVEGF) [4], the “fold change in binding affinity (Kd)” value came to 0.5 x.

B6: G6.31 HC-Y58R (Fab, name in Kabat numbering, V domains shown)
VH: EVQLVESGGGLVQPGGSLRLSCAASGFTISDYWIHWVRQAPGKGLEWVAGITPAGGYTRYADSVKGRFTISADTSKNTAYLQMNSLRAEDTAVYYCARFVFFLPYAMDYWGQGTLVTVSS
VL: DIQMTQSPSSLSASVGDRVTITCRASQDVSTAVAWYQQKPGKAPKLLIYSASFLYSGVPSRFSGSGSGTDFTLTISSLQPEDFATYYCQQGYGNPFTFGQGTKVEIK
notes: Fab
As for B6, in the assay with human VEGF (hVEGF) [1], the “Fold difference (relative to G6.31)” value is 9.1 fold, the Kd stood at 0.17 nM, the koff was 0.000255 s⁻¹ and the kon was 1.48e+06 M⁻¹ s⁻¹. For the same molecule, in the assay with human VEGF (hVEGF) [5], the “Fold improved (relative to WT)” value worked out at 6.9 fold, the Kd was 0.076 nM, the koff was found to be 0.000184 s⁻¹ and the kon turned out to be 2.42e+06 M⁻¹ s⁻¹. The “fold increase in affinity compared to wild-type G6.31” value (from here on “fold increase in affinity”) with human VEGF (hVEGF) [6] lay in the range of 8 to 9 fold. The “fold change in binding affinity (Kd)” value in the assay with human VEGF (hVEGF) [3] turned out to be 9 x.

B7: G6.31 HC-N82aR (Fab, name in Kabat numbering, V domains shown)
VH: EVQLVESGGGLVQPGGSLRLSCAASGFTISDYWIHWVRQAPGKGLEWVAGITPAGGYTYYADSVKGRFTISADTSKNTAYLQMRSLRAEDTAVYYCARFVFFLPYAMDYWGQGTLVTVSS
VL: DIQMTQSPSSLSASVGDRVTITCRASQDVSTAVAWYQQKPGKAPKLLIYSASFLYSGVPSRFSGSGSGTDFTLTISSLQPEDFATYYCQQGYGNPFTFGQGTKVEIK
notes: Fab
Turning to B7, in the assay with human VEGF (hVEGF) [1], the “Fold difference (relative to G6.31)” value worked out at 6.7 fold, binding was put at a Kd of 0.23 nM, the koff amounted to 0.000322 s⁻¹ and the kon turned out to be 1.39e+06 M⁻¹ s⁻¹. Moreover, in the assay with human VEGF (hVEGF) [5], the “Fold improved (relative to WT)” value was 6.8 fold, binding was characterised by a dissociation constant (Kd) of 0.077 nM, the koff was determined as 0.000124 s⁻¹ and the kon was 1.62e+06 M⁻¹ s⁻¹. Also, the “fold increase in affinity” value with human VEGF (hVEGF) [6] is around 6.6 fold. Moreover, the “fold change in binding affinity (Kd)” value with human VEGF (hVEGF) [3] came out at 7 x.

B8: G6.31 LC-S50M (Fab, V domains shown)
VH: EVQLVESGGGLVQPGGSLRLSCAASGFTISDYWIHWVRQAPGKGLEWVAGITPAGGYTYYADSVKGRFTISADTSKNTAYLQMNSLRAEDTAVYYCARFVFFLPYAMDYWGQGTLVTVSS
VL: DIQMTQSPSSLSASVGDRVTITCRASQDVSTAVAWYQQKPGKAPKLLIYMASFLYSGVPSRFSGSGSGTDFTLTISSLQPEDFATYYCQQGYGNPFTFGQGTKVEIK
notes: Fab
Regarding B8, in the assay with human VEGF (hVEGF) [1], the “Fold difference (relative to G6.31)” value worked out at 1.2 fold, the Kd was 1.31 nM, the koff turned out to be 0.000611 s⁻¹ and the kon is 467000 M⁻¹ s⁻¹. Moreover, in the assay with human VEGF (hVEGF) [4], the “fold change in binding affinity (Kd)” value is 1 x.

B9: G6.31 LC-F83A (Fab, V domains shown)
VH: EVQLVESGGGLVQPGGSLRLSCAASGFTISDYWIHWVRQAPGKGLEWVAGITPAGGYTYYADSVKGRFTISADTSKNTAYLQMNSLRAEDTAVYYCARFVFFLPYAMDYWGQGTLVTVSS
VL: DIQMTQSPSSLSASVGDRVTITCRASQDVSTAVAWYQQKPGKAPKLLIYSASFLYSGVPSRFSGSGSGTDFTLTISSLQPEDAATYYCQQGYGNPFTFGQGTKVEIK
notes: Fab
With B9, in the assay with human VEGF (hVEGF) [1], the “Fold difference (relative to G6.31)” value came out at 3.1 fold, the Kd was 0.5 nM, the koff was found to be 0.000433 s⁻¹ and the kon stood at 855000 M⁻¹ s⁻¹. Besides, the “fold change in binding affinity (Kd)” value with human VEGF (hVEGF) [4] came to 3 x. Moreover, in the assay with human VEGF (hVEGF) [5], the “Fold improved (relative to WT)” value was determined as 4 fold; the affinity, expressed as Kd, was 0.132 nM; the koff is 0.000218 s⁻¹; the kon amounted to 1.65e+06 M⁻¹ s⁻¹. Further, the “fold increase in affinity” value with human VEGF (hVEGF) [6] turned out to be 3 fold.

B10: G6.31 LC-L73G (Fab, V domains shown)
VH: EVQLVESGGGLVQPGGSLRLSCAASGFTISDYWIHWVRQAPGKGLEWVAGITPAGGYTYYADSVKGRFTISADTSKNTAYLQMNSLRAEDTAVYYCARFVFFLPYAMDYWGQGTLVTVSS
VL: DIQMTQSPSSLSASVGDRVTITCRASQDVSTAVAWYQQKPGKAPKLLIYSASFLYSGVPSRFSGSGSGTDFTGTISSLQPEDFATYYCQQGYGNPFTFGQGTKVEIK
notes: Fab
For the molecule B10, in the assay with human VEGF (hVEGF) [1], the “Fold difference (relative to G6.31)” value worked out at 1.4 fold, the equilibrium dissociation constant (Kd) turned out to be 1.09 nM, the koff stood at 0.000644 s⁻¹ and the on-rate constant (kon) came to 589000 M⁻¹ s⁻¹. The “fold change in binding affinity (Kd)” value with human VEGF (hVEGF) [4] is 2 x. Further, the “fold increase in affinity” value with human VEGF (hVEGF) [6] is around 1.6 fold.

B11: G6.31 HC-T57E (Fab, name in Kabat numbering, V domains shown)
VH: EVQLVESGGGLVQPGGSLRLSCAASGFTISDYWIHWVRQAPGKGLEWVAGITPAGGYEYYADSVKGRFTISADTSKNTAYLQMNSLRAEDTAVYYCARFVFFLPYAMDYWGQGTLVTVSS
VL: DIQMTQSPSSLSASVGDRVTITCRASQDVSTAVAWYQQKPGKAPKLLIYSASFLYSGVPSRFSGSGSGTDFTLTISSLQPEDFATYYCQQGYGNPFTFGQGTKVEIK
notes: Fab
As for B11, in the assay with human VEGF (hVEGF) [1], the “Fold difference (relative to G6.31)” value came out at 7.7 fold; the affinity, expressed as Kd, was 0.2 nM; the koff was 0.000402 s⁻¹; the kon came to 1.93e+06 M⁻¹ s⁻¹. Besides, in the assay with human VEGF (hVEGF) [6], the “fold increase in affinity” value lay within 8 to 9 fold. Further, the “fold change in binding affinity (Kd)” value in the assay with human VEGF (hVEGF) [3] was 8 x.

B12: G6.31 HC-A53R (Fab, name in Kabat numbering, V domains shown)
VH: EVQLVESGGGLVQPGGSLRLSCAASGFTISDYWIHWVRQAPGKGLEWVAGITPRGGYTYYADSVKGRFTISADTSKNTAYLQMNSLRAEDTAVYYCARFVFFLPYAMDYWGQGTLVTVSS
VL: DIQMTQSPSSLSASVGDRVTITCRASQDVSTAVAWYQQKPGKAPKLLIYSASFLYSGVPSRFSGSGSGTDFTLTISSLQPEDFATYYCQQGYGNPFTFGQGTKVEIK
notes: Fab
On to B12, for which, in the assay with human VEGF (hVEGF) [1], the “Fold difference (relative to G6.31)” value was 3.7 fold, the Kd is 0.42 nM, the koff amounted to 0.00035 s⁻¹ and the kon was 829000 M⁻¹ s⁻¹. Moreover, the “fold change in binding affinity (Kd)” value with human VEGF (hVEGF) [3] worked out at 4 x.
